The values below come from patent US20210388110A1 (published 2021).

The term Kd denotes a measure of binding affinity in units of concentration.

The assay concerns the target T1, soluble human CD3ε chain (human, UniProt P07766 23-126, limits assumed).
T1 construct: also called human CD3 epsilon chain
Nature of the assay: SPR (Biacore), soluble human CD3ε chain. Background: SPR reads the build-up and loss of mass on a sensor chip optically.

T1 sequence (P07766 23-126 limits assumed): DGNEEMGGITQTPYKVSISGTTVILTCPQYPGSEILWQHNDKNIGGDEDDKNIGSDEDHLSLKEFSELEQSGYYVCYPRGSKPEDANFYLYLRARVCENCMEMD

B1: TR01H091-E22Hh/none-Hi-Kn010G3/L0011-k0 (antibody, human IgG1, kappa, L234A L235A, N297A)
heavy: QVQLVESGGGLVQPGRSLKLSCAASGFTFSNAWMHWVRQAPGKGLEWVAQIKDKSQNYATYYAESVKGRFTISRDDSKNSLYLQMNSLKTEDTAVYYCRYVHYAAGYGVDAWGQGTTVTVSSASTKGPSVFPLAPSSKSTSGGTAALGCLVKDYFPEPVTVSWNSGALTSGVHTFPAVLQSSGLYSLSSVVTVPSSSLGTQTYICNVNHKPSNTKVDKKVEPKSCDKTHTCPPCPAPEAAGGPSVFLFPPKPKDTLMISRTPEVTCVVVDVSHEDPEVKFNWYVDGVEVHNAKTKPREEQYASTYRVVSVLTVLHQDWLNGKEYKCKVSNKALPAPIEKTISKAKGQPREPQVYTLPPSRCELTKNQVSLSCAVKGFYPSDIAVEWESNGQPENNYKTTPPVLDSDGSFFLVSKLTVDKSRWQQGNVFSCSVMHEALHNHYTQKSLSLSPDYKDDDDK
chain: EPKSSDKTHTCPPCPAPELLGGPSVFLFPPKPKDTLMISRTPEVTCVVVDVSHEDPEVKFNWYVDGVEVHNAKTKPREEQYNSTYRVVSVLTVLHQDWLNGKEYKCKVSNKALPAPIEKTISKAKGQPREPQVCTLPPSRDELTKNQVSLWCLVKGFYPSDIAVEWESNGQPENNYKTTPPVLDSDGSFFLYSKLTVDKSRWQQGNVFSCSVMHEALHNRYTQKSLSLSP
light: DIVMTQSPLSLPVTPGEPASISCRSSQPLVHSNRNTYLHWYQQKPGQAPRLLIYKVSNRFSGVPDRFSGSGSGTDFTLKISRVEAEDVGVYYCGQGTQVPYTFGQGTKLEIKRTVAAPSVFIFPPSDEQLKSGTASVVCLLNNFYPREAKVQWKVDNALQSGNSQESVTEQDSKDSTYSLSSTLTLSKADYEKHKVYACEVTHQGLSSPVTKSFNRGEC
notes: one-arm antibody (single Fab) with Fab-less hinge-Fc chain Hi-Kn010G3
B1 showed a Kd of 66.7 nM.

B2: TR01H094-E22Hh/none-Hi-Kn010G3/L0011-k0 (antibody, human IgG1, kappa, L234A L235A, N297A)
heavy: QVQLVESGGGLVQPGRSLRLSCAASGFTFSNAWMHWVRQAPGKGLEWVAQIKDKSQNYATYYAESVSGRFTISRDDSKNSLYLQMNSLKTEDTAVYYCRYVHYAAGYGVDAWGQGTTVTVSSASTKGPSVFPLAPSSKSTSGGTAALGCLVKDYFPEPVTVSWNSGALTSGVHTFPAVLQSSGLYSLSSVVTVPSSSLGTQTYICNVNHKPSNTKVDKKVEPKSCDKTHTCPPCPAPEAAGGPSVFLFPPKPKDTLMISRTPEVTCVVVDVSHEDPEVKFNWYVDGVEVHNAKTKPREEQYASTYRVVSVLTVLHQDWLNGKEYKCKVSNKALPAPIEKTISKAKGQPREPQVYTLPPSRCELTKNQVSLSCAVKGFYPSDIAVEWESNGQPENNYKTTPPVLDSDGSFFLVSKLTVDKSRWQQGNVFSCSVMHEALHNHYTQKSLSLSPDYKDDDDK
chain: EPKSSDKTHTCPPCPAPELLGGPSVFLFPPKPKDTLMISRTPEVTCVVVDVSHEDPEVKFNWYVDGVEVHNAKTKPREEQYNSTYRVVSVLTVLHQDWLNGKEYKCKVSNKALPAPIEKTISKAKGQPREPQVCTLPPSRDELTKNQVSLWCLVKGFYPSDIAVEWESNGQPENNYKTTPPVLDSDGSFFLYSKLTVDKSRWQQGNVFSCSVMHEALHNRYTQKSLSLSP
light: DIVMTQSPLSLPVTPGEPASISCRSSQPLVHSNRNTYLHWYQQKPGQAPRLLIYKVSNRFSGVPDRFSGSGSGTDFTLKISRVEAEDVGVYYCGQGTQVPYTFGQGTKLEIKRTVAAPSVFIFPPSDEQLKSGTASVVCLLNNFYPREAKVQWKVDNALQSGNSQESVTEQDSKDSTYSLSSTLTLSKADYEKHKVYACEVTHQGLSSPVTKSFNRGEC
notes: as for B1
In the case of B2, binding was put at a Kd of 70 nM.

B3: TR01H092-E22Hh/none-Hi-Kn010G3/L0011-k0 (antibody, human IgG1, kappa, L234A L235A, N297A)
heavy: QVQLVESGGGLVQPGRSLRLSCAASGFTFSNAWMHWVRQAPGKGLEWVAQIKDKSQNYATYYAESVAGRFTISRDDSKNSLYLQMNSLKTEDTAVYYCRYVHYAAGYGVDAWGQGTTVTVSSASTKGPSVFPLAPSSKSTSGGTAALGCLVKDYFPEPVTVSWNSGALTSGVHTFPAVLQSSGLYSLSSVVTVPSSSLGTQTYICNVNHKPSNTKVDKKVEPKSCDKTHTCPPCPAPEAAGGPSVFLFPPKPKDTLMISRTPEVTCVVVDVSHEDPEVKFNWYVDGVEVHNAKTKPREEQYASTYRVVSVLTVLHQDWLNGKEYKCKVSNKALPAPIEKTISKAKGQPREPQVYTLPPSRCELTKNQVSLSCAVKGFYPSDIAVEWESNGQPENNYKTTPPVLDSDGSFFLVSKLTVDKSRWQQGNVFSCSVMHEALHNHYTQKSLSLSPDYKDDDDK
chain: EPKSSDKTHTCPPCPAPELLGGPSVFLFPPKPKDTLMISRTPEVTCVVVDVSHEDPEVKFNWYVDGVEVHNAKTKPREEQYNSTYRVVSVLTVLHQDWLNGKEYKCKVSNKALPAPIEKTISKAKGQPREPQVCTLPPSRDELTKNQVSLWCLVKGFYPSDIAVEWESNGQPENNYKTTPPVLDSDGSFFLYSKLTVDKSRWQQGNVFSCSVMHEALHNRYTQKSLSLSP
light: DIVMTQSPLSLPVTPGEPASISCRSSQPLVHSNRNTYLHWYQQKPGQAPRLLIYKVSNRFSGVPDRFSGSGSGTDFTLKISRVEAEDVGVYYCGQGTQVPYTFGQGTKLEIKRTVAAPSVFIFPPSDEQLKSGTASVVCLLNNFYPREAKVQWKVDNALQSGNSQESVTEQDSKDSTYSLSSTLTLSKADYEKHKVYACEVTHQGLSSPVTKSFNRGEC
notes: as for B1
The molecule B3 showed a Kd of 72.1 nM.

B4: TR01H093-E22Hh/none-Hi-Kn010G3/L0011-k0 (antibody, human IgG1, kappa, L234A L235A, N297A)
heavy: QVQLVESGGGLVQPGRSLRLSCAASGFTFSNAWMHWVRQAPGKGLEWVAQIKDKSQNYATYYAESVQGRFTISRDDSKNSLYLQMNSLKTEDTAVYYCRYVHYAAGYGVDAWGQGTTVTVSSASTKGPSVFPLAPSSKSTSGGTAALGCLVKDYFPEPVTVSWNSGALTSGVHTFPAVLQSSGLYSLSSVVTVPSSSLGTQTYICNVNHKPSNTKVDKKVEPKSCDKTHTCPPCPAPEAAGGPSVFLFPPKPKDTLMISRTPEVTCVVVDVSHEDPEVKFNWYVDGVEVHNAKTKPREEQYASTYRVVSVLTVLHQDWLNGKEYKCKVSNKALPAPIEKTISKAKGQPREPQVYTLPPSRCELTKNQVSLSCAVKGFYPSDIAVEWESNGQPENNYKTTPPVLDSDGSFFLVSKLTVDKSRWQQGNVFSCSVMHEALHNHYTQKSLSLSPDYKDDDDK
chain: EPKSSDKTHTCPPCPAPELLGGPSVFLFPPKPKDTLMISRTPEVTCVVVDVSHEDPEVKFNWYVDGVEVHNAKTKPREEQYNSTYRVVSVLTVLHQDWLNGKEYKCKVSNKALPAPIEKTISKAKGQPREPQVCTLPPSRDELTKNQVSLWCLVKGFYPSDIAVEWESNGQPENNYKTTPPVLDSDGSFFLYSKLTVDKSRWQQGNVFSCSVMHEALHNRYTQKSLSLSP
light: DIVMTQSPLSLPVTPGEPASISCRSSQPLVHSNRNTYLHWYQQKPGQAPRLLIYKVSNRFSGVPDRFSGSGSGTDFTLKISRVEAEDVGVYYCGQGTQVPYTFGQGTKLEIKRTVAAPSVFIFPPSDEQLKSGTASVVCLLNNFYPREAKVQWKVDNALQSGNSQESVTEQDSKDSTYSLSSTLTLSKADYEKHKVYACEVTHQGLSSPVTKSFNRGEC
notes: as for B1
In turn, B4 showed a dissociation constant Kd of 68 nM. This Kd and that of the molecule before are within 1.5-fold of each other.
